Experimental findings from paper PMC12416549 (2024) are described below.

T1: TNFR1 (Homo sapiens, UniProt P19438)
T1 chain: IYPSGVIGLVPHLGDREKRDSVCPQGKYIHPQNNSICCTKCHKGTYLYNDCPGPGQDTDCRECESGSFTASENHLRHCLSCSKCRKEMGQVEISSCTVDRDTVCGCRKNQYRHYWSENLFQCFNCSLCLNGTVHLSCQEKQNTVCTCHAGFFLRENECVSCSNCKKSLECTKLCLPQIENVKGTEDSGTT

B1: E104Q (designed binder)
chain: SMEEEVEKAAKEYEKKKKEAIEKHLEKLKAKDKEAAERFLKELEEAAKEYAKDEAKTMSEEEAKRRAKKYKEKVLLSELSEEEQKEIKEAEEKLVRTILKYVEQAAK
B2: K11P (designed binder)
chain: B1 chain with K11P, Q104E
B3: K88S (designed binder)
chain: B1 chain with K88S, Q104E
B4: D53T (designed binder)
chain: B1 chain with D53T, Q104E
B5: I21T (designed binder)
chain: B1 chain with I21T, Q104E
B6: K64A (designed binder)
chain: B1 chain with K64A, Q104E
B7: K100F (designed binder)
chain: B1 chain with K100F, Q104E
B8: E104A (designed binder)
chain: B1 chain with Q104A
B9: E82Q (designed binder)
chain: B1 chain with E82Q, Q104E
B10: E103F (designed binder)
chain: B1 chain with E103F, Q104E
B11: K107Y (designed binder)
chain: B1 chain with Q104E, K107Y
B12: V6H (designed binder)
chain: B1 chain with V6H, Q104E
B13: E44T (designed binder)
chain: B1 chain with E44T, Q104E
B14: A9K (designed binder)
chain: B1 chain with A9K, Q104E
B15: E5K (designed binder)
chain: B1 chain with E5K, Q104E
B16: T97N (designed binder)
chain: B1 chain with T97N, Q104E
B17: K11D (designed binder)
chain: B1 chain with K11D, Q104E
B18: A10C (designed binder)
chain: B1 chain with A10C, Q104E
B19: Y70F (designed binder)
chain: B1 chain with Y70F, Q104E
B20: S77L (designed binder)
chain: B1 chain with S77L, Q104E
B21: R66G (designed binder)
chain: B1 chain with R66G, Q104E
B22: V6T (designed binder)
chain: B1 chain with V6T, Q104E
B23: K33P (designed binder)
chain: B1 chain with K33P, Q104E
B24: A46M (designed binder)
chain: B1 chain with A46M, Q104E
B25: S1P (designed binder)
chain: B1 chain with S1P, Q104E
B26: K18E (designed binder)
chain: B1 chain with K18E, Q104E
B27: K73F (designed binder)
chain: B1 chain with K73F, Q104E
B28: R96H (designed binder)
chain: B1 chain with R96H, Q104E
B29: I21S (designed binder)
chain: B1 chain with I21S, Q104E
B30: K85V (designed binder)
chain: B1 chain with K85V, Q104E
B31: K56P (designed binder)
chain: B1 chain with K56P, Q104E
B32: E72T (designed binder)
chain: B1 chain with E72T, Q104E
B33: E103C (designed binder)
chain: B1 chain with E103C, Q104E
B34: R38V (designed binder)
chain: B1 chain with R38V, Q104E
B35: K8M (designed binder)
chain: B1 chain with K8M, Q104E
B36: Y50R (designed binder)
chain: B1 chain with Y50R, Q104E
B37: M58C (designed binder)
chain: B1 chain with M58C, Q104E
B38: K15W (designed binder)
chain: B1 chain with K15W, Q104E
B39: A106E (designed binder)
chain: B1 chain with Q104E, A106E
B40: K64W (designed binder)
chain: B1 chain with K64W, Q104E

Changes are numbered by the printed parent chain. Names and notes keep the numbering of the source.

In this test the target is T1, TNFR1. The test can be described thus: yeast display SC50.
As to B1, the “apparent Kd (screen)” value came out at 1.05 nM.
For the molecule B2, the “apparent Kd (screen)” value came to 18.3 nM.
Consider B3, for which the “apparent Kd (screen)” value amounted to 0.49 nM.
With B4 the figure was 2.73 nM; with B5, 0.49 nM; with B6, 0.956 nM.
In the case of B7, the “apparent Kd (screen)” value stood at 1.27 nM.
The figure for B8 is 0.79 nM; for B9 it is 0.49 nM.
The figure for B10 is 1.05 nM; for B11 it is 2.73 nM; for B12 it is 0.446 nM.
Consider B13, for which the “apparent Kd (screen)” value worked out at 0.956 nM.
With B14 the figure was 0.446 nM.
Turning to B15, the “apparent Kd (screen)” value was 0.446 nM.
Turning to B16, the “apparent Kd (screen)” value came out at 1.16 nM.
The figure for B17 is 0.446 nM; for B18 it is 1.05 nM; for B19 it is 12.5 nM.
The figure for B20 is 7.07 nM; for B21 it is 7.07 nM.
The figure for B22 is 0.49 nM; for B23 it is 0.593 nM; for B24 it is 0.117 nM.
As to B25, the “apparent Kd (screen)” value was found to be 0.539 nM.
With B26, the “apparent Kd (screen)” value came to 1.86 nM.
In the case of B27, the “apparent Kd (screen)” value came to 15.2 nM.
Regarding B28, the “apparent Kd (screen)” value was found to be 2.48 nM.
Turning to B29, the “apparent Kd (screen)” value is 0.446 nM.
The figure for B30 is 1.05 nM; for B31 it is 24.4 nM; for B32 it is 1.27 nM.
The figure for B33 is 7.78 nM; for B34 it is 2.48 nM; for B35 it is 1.05 nM.
B36: the “apparent Kd (screen)” value is 2.25 nM.
As for B37, the “apparent Kd (screen)” value was found to be 2.73 nM.
With B38 the figure was 1.16 nM.
With B39 the figure was 1.27 nM; with B40, 0.446 nM.
